A short description of the data set: soluble fraction after stress (log2 fold change); higher = more stays soluble; pooled small domains, quantitative proteomics. As to conditions: stress: 75 degC.
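Further: 20 min heating vs room temperature control held 20 min.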

For “HMISADSSKVDTLVQVYSNMKPIQAAQVFEKMDEDLVIEILSRMKKKNAADILNLIKTEKAQVFAEKYA”, the “soluble fraction (log2)” value was -0.109.

Take “HMISAEPVGEDLFKVAFPFLGGSTVFEKTIEQFIEEHPSKRIDHIYTVPNPLRLKKADALIFYIITEEK”: the “soluble fraction (log2)” value was -1.07.

As to “HMISASDLQTYLKGMDYPARKEDLIVHAQRNNAPESVIAAIRQFSDRTYQSAADVSEEFGKI”, the “soluble fraction (log2)” value came out at 0.602.

As to “HMISDEELLVSTKKEIMSLATVLTKTDKKDDAIAIMKEYDPAANPNRIKDVNKAKELLERLQKLG”, the “soluble fraction (log2)” value was -0.225.

On to “HMISDISEIEAIIVEVLKVFPNQLQEYLDGKEKILSFFVGQVMQRTKGRANPSLVNEILKEKIKN”, for which the “soluble fraction (log2)” value is -1.22.

For the sequence “HMISEAEGTILQLLKEADGTLPFTYKSDADEIKKVFGMSKKNFKRTLTELIEAKKIQLLDDAIVL”, the “soluble fraction (log2)” value is -0.632.

Consider “HMISEKEIKIIEDILARWNGKLTWDDFTSKVAKKLNLPSLSKFTLMGYPEIKQAFLTRKQTLK”, for which the “soluble fraction (log2)” value is -0.53.

As for “HMISENFVEAKILLTEDNRPKSLEILKDIIRQHDKVYSPLSLFLILDEDLEENKEIILEYFDLVLS”, the “soluble fraction (log2)” value is -0.327.

With “HMISESLLDEIPGLGETRRNSLLREFGSVAMIRKASAEEIASRVRGIGAEFAAAIHDFLQTH”, the “soluble fraction (log2)” value is -0.446.

For the sequence “HMISFHEYLTQLLDEKGLTKAQVITDSNIQKNYGYQIFDGSKTPSRDKVIAIALAMQLTLDEANRLLHLSN”, the “soluble fraction (log2)” value was -1.75.

In the case of “HMISFTDLEHIEKMIENVLYTKTPLNLPPTDAKIRKIEHQIARRYGLNSESFGDEPRRFVVVYPNEERE”, the “soluble fraction (log2)” value is -0.907.

“HMISKAQLFSEEELTELYRATGYQLENDPEIHREQFEALQAVRAKIEYAVPDVQEKLEQEQNLGQQ”: the “soluble fraction (log2)” value was 0.512.

As to “HMISKRFQVDEENSNNRVDIFLANNLDSISRGIVQQLILDGKVLVNGETVKRNHLLKTNDEVDISFEI”, the “soluble fraction (log2)” value was 0.349.

On to “HMISRDPYDAGAIKRHFSASGLFSSKELAHYLGKSVSTAKNVLSDLQQQGIVEMVGQGPATKYRFI”, for which the “soluble fraction (log2)” value is 0.772.

Turning to “HMISSRDAAVIGLVENIQRAQLNAIDESSGFKHLMETYNLESKEIALLVGKSRSYVSNSLRLSK”, the “soluble fraction (log2)” value amounted to 0.124.

“HMISTVFYVDVKGEVHHPGVYQMKAENRVKDLIEAAGGFTPLADDQKLNLAQLLEDQMVIVVPKKGEEV”: the “soluble fraction (log2)” value came to 0.243.

Consider “HMISVTNRTGTGLNDVKVEVFPVGRQMVFSATVFRVESEATNRFSLGELRGSDGTPFNQRVHRPESI”, for which the “soluble fraction (log2)” value was -0.184.

As to “HMITAEQENILFEKASDDISNNIINKGIWTKAYSQAGGDESKQKAIYIDLLVNYYKMLIKAGEEFEDI”, the “soluble fraction (log2)” value is -2.42.

With “HMITALLPGTVLIREFDGRDYHVTVATDGRFEMDGHKYPSLSAVAKHITGTQWSGPAFFGLN”, the “soluble fraction (log2)” value was -1.06.

Turning to “HMITASNYFIEVERIGIETLPETLKKGHDLVVKSTSNGTNWANYQTSEGIKKVIDLYFQKLNEYANTV”, the “soluble fraction (log2)” value was -1.83.

In the case of “HMITDSSEIEAMVDALVKENPGQAEQYKDGNMKVAGWFIGQIMKVSKGKANPQLVGDLLKKKLG”, the “soluble fraction (log2)” value amounted to 0.197.

On to “HMITERVPVPDLTGMPLMEAIKTLNSSKLQYQVVGSVIEGDENRIIDQTPKPDIMVSEKSIVLLYLETYRG”, for which the “soluble fraction (log2)” value was -2.6.

Turning to “HMITIDADTGKRVYTRKEVADLVGASTQSIRLWEDAGAIPASVRDEGGYRYWYEEDLEAIKAYAS”, the “soluble fraction (log2)” value was -0.203.

As to “HMITKAIELAEEAEKETVWLGVWEHNHPAQKFYQSLGFVKTDEHDFYMGNERHTDYTMTKQLK”, the “soluble fraction (log2)” value is -0.344.

“HMITLKKRRQEAILEIIEKYDLSTQDELLQKLKDSGFDATQATVSRDIKELRLVKTMGANGQYKYAVT”: the “soluble fraction (log2)” value is -0.881.

Consider “HMITMADKIDTALSEMAANNEKINVSQVAKRLGISNSAIYKFNPEKIPDIQTAQKRQKHKAEAIAVGTEN”, for which the “soluble fraction (log2)” value was -0.0393.

As for “HMITMWYYKKDGNIIGPASARKIASMRELGIITDSTPVSRKRNAKNWETFGGLSEKINLESSQWD”, the “soluble fraction (log2)” value was -1.98.

For “HMITNEDINIKKLLVVMKDTPLSANEIMDKLNIKSKETLRNMYLDPAIKKGLINLTIPDKPTSKNQKYYK”, the “soluble fraction (log2)” value is -0.426.

Consider “HMITNESEIERIVEAIISKNPESIAQYRSGITKVLGFLVGQVMKETKGRANPALVNRIIISKME”, for which the “soluble fraction (log2)” value is -0.899.

Consider “HMITSELALVKLVVKGANRVEALRVAETFRARALDVTLSSFVFELTGKPSKLDAFIGLMRSLGDTEILKR”, for which the “soluble fraction (log2)” value was -4.17.

Regarding “HMIVEIVPSALHGERVDRIVAFILDVSRSVASGLVERGAVHVDGSVETSGKVRLVEGQEVSVDPSQVPG”, the “soluble fraction (log2)” value was -0.69.

On to “HMIVNEQEQTFIKAMRDDDFNTILELKMKGYQPSDNVLKSLQPDISSTTFIAAAKIFQMERMLK”, for which the “soluble fraction (log2)” value was -0.502.

For “HMIVSVPNVRGMGESKAAAALQNRGLLVSIDYESSTSASQGEVIRQSISPGTEVTKGSSITIIIAVSPN”, the “soluble fraction (log2)” value was -1.56.

As for “HMIVVMQPGATKEQVQAVIDRVAEFGFQTKLAPGAERMVIGVVGSPLPDTLKEALERLPGVEEVIRVSKR”, the “soluble fraction (log2)” value is -0.379.

As for “HMIVVTSPQVTDERIAEIVAFIEKHGVQAHVSRGTDRTVIGIIGKADPVLAEHLRSMQGVENVIKIS”, the “soluble fraction (log2)” value was -0.167.

Regarding “HMIYKLTLLRDLPEAKAGFDFYLRGGLASHDGEEWFSWVTREPIYARLYWLYVEKREEWVLVEETDI”, the “soluble fraction (log2)” value was -4.51.

Take “HMIYMIDPNDEIAVKLDEIYQRYLNRTIDPEGLIFFYNQIRNAQMGYSDVEKRILESPEYVSIPK”: the “soluble fraction (log2)” value was -0.53.

On to “HMIYQNVINLLKNRLNSSIYNIGDLLPSEKELAEHYDVSRNTLRKALKTLEEEGMIERRHGSGTYLRNK”, for which the “soluble fraction (log2)” value was -1.67.

On to “HMIYWGTMVDKIYEVLSLAGKPLSLMEIYQQVKVFFPNSTKSSIEASMRLDARHRFKYDVEGHVYSLVD”, for which the “soluble fraction (log2)” value was -3.44.

As to “HMIYYTEEELVKRYIDFSNYLGKKEGASDVDFKKYAVEFGIPSRDHYNRKFITLFNLKIKAGYKPIRH”, the “soluble fraction (log2)” value is -0.835.

In the case of “HMKAAQDQDQAATLLQKATGVNQDQAKLAATVLFKEQSVTPIRQAIASGDYYQAYQDAKSLQQQ”, the “soluble fraction (log2)” value was 0.221.

As for “HMKADIEQVQRAFDTLDPKNQQLVLDAMKAATAELDPNSDQFKTNTEFINDNQKALDRHAKAS”, the “soluble fraction (log2)” value is 0.122.

As to “HMKAGAVFNEGDVLYPKIGGLKLMAAAGEGGKVVATLAKTDEMIYMGEEQSGFVKVESGSGSGWVKKILVA”, the “soluble fraction (log2)” value stood at 0.438.

On to “HMKAGEDAVQKAVLEAVAESAAAVADYKAGSERALNFIVGKVMKKTRGKASAAEVHRLVREEVDR”, for which the “soluble fraction (log2)” value was determined as 0.0653.

Take “HMKAILHQESRSGFANATVIGGLDKFLDTNWNQLSKYIKKIETPYSDRSLEDRKIWISTILGILSTEI”: the “soluble fraction (log2)” value came to 0.279.

On to “HMKALHEEIAEKIQEQILRSNLAPGDKLDTELELAARYGVSRSTIRQALIQLESAGLIDRLHGRGTFVAD”, for which the “soluble fraction (log2)” value amounted to 0.59.

For “HMKAPDSQYKPLTDFQTDASFQKLDAYLRNRYPAMLANAVVYDVLRTPDAISYRVNYQVDNKMITINAAVT”, the “soluble fraction (log2)” value is -1.66.

Consider “HMKAPLTFVIEGKEYEAFDQYKTGAELKQLAGIPLDTELFLSISKPYQDELIENEKQVNLARPETEYFFVK”, for which the “soluble fraction (log2)” value came to 0.522.

Consider “HMKAQTVPQFVGMTMTEAEEKASELGITLIEGAVVDSVEPKDTILTQDVDEGTEITGKMEIMVTISS”, for which the “soluble fraction (log2)” value was 0.324.

As to “HMKARLRRVFQIYYGDAYSIMKALKETFPLQTIVHEPRTNSIVVDTPDEETATKIGDVVSAL”, the “soluble fraction (log2)” value is -0.771.

For “HMKDANIQIGKRLREARLNMNLEKSEIADVLGVTVEHYRKLEAGVMGISVDKVLTLYHKYGIDPTYLITG”, the “soluble fraction (log2)” value is -3.36.

As for “HMKDEGSLKVIGQMVVIGIPQSEAKRFANTYTVAQIRAALQYTQKRSEDKNASKLENVAAYFRQALVRNWG”, the “soluble fraction (log2)” value was -2.57.

For the sequence “HMKDHKSKWMAKTELDSIAKNLSKKHAISLDYEEDGTRFYAGGQSPLGIGRLFTVFVAPRNGHWSDQLR”, the “soluble fraction (log2)” value turned out to be 0.194.

In the case of “HMKDLIGEAKAKELALGHAKLSASDVTFIHVELDWENGRRVYDVEFYSGAKEYDYEIDAKTGEIVSFDY”, the “soluble fraction (log2)” value was -1.23.

As for “HMKDLQHLVGEKGTTVTPLRPSGIALIKGSRYDVVSEGSFIQQGVAVEVIKVEGRRVVVSPLQED”, the “soluble fraction (log2)” value was -0.722.

For “HMKDLSMPDVMGSSLNDAKKALTELGIMDITVRYVESGSSEGSIVGMEPPAGSKFAADGKVVLQVSSGS”, the “soluble fraction (log2)” value came to 0.542.

Turning to “HMKDMKISTQNILKELATNYPDQTAFRKNVIESTAKSMGYTGKDFYPMLTAETRVKIGTYDLSALLQTV”, the “soluble fraction (log2)” value was -0.38.

With “HMKDPSFELMSVAESFYRSGNVDHAVYALEKYLEVYADGDYTDRAHDLLSQARKGLTYPHGYPPLQI”, the “soluble fraction (log2)” value is -1.26.

As to “HMKDRDISNAVLNILSKDSDHNYNYKQIASVLGVKDPFVRKRIVSVLAQLTKNGQLEEISRGKYQIKN”, the “soluble fraction (log2)” value was -0.478.

For the sequence “HMKDRNISSSVLEILSKDPDHTYNYKQIAALLGVKDAFIRKRIVTLLAQLAKDGHLDEISRGKYQIK”, the “soluble fraction (log2)” value is -1.22.

For “HMKDVVAPMSGRVVRLMVAAGDEVVKRQALVVVEAMKMENVLTAPKEGRIKKVPVREGMTVEVGQTLVSFE”, the “soluble fraction (log2)” value was -1.88.

As for “HMKDYKSALQELIQSGDKRVISYHTLKETGPSHNREFEAAVKLDGNIILGVGKGKTKKEAEQNAAHEALKK”, the “soluble fraction (log2)” value was -0.0221.

Take “HMKDYKSSLQERVQAVGGGQLIYRVNREEGPDHSKTFYMDLFLGDRLIGTGSGRNKKQAEQQAAKEAIERG”: the “soluble fraction (log2)” value is -0.283.

Turning to “HMKDYKTIFQELIQKKHKTSPIYKSYEYNDMFKAEVYVNDKSFADGIGKSKKEAETDAAKKALEKIEMA”, the “soluble fraction (log2)” value was -0.0428.

Turning to “HMKDYQGEISVVASGERIDVYLFNYFNLFSRTKIKNHIKNGNILVNENIISPSYILKQNDKIAFNLGAPY”, the “soluble fraction (log2)” value was -2.27.

“HMKDYQGNILIQSEGDRIDKFLFKYFNSFSRTKIKNHIINGNILVNDKNTIPAYVLKINDKISYDLSTSVK”: the “soluble fraction (log2)” value is -1.9.

For the sequence “HMKEAITVIGGKNNITFDASAQAEIGIYSMDGVQIQKKTISDNERIDLPAGMYVVTVKTGQANVSKVVVV”, the “soluble fraction (log2)” value is -0.553.

As for “HMKEDSTIIERIISNLSSASLKTQKAFEYKLTDLMFRFSEGEYEWSSAMEVIREELLPFLNK”, the “soluble fraction (log2)” value stood at 0.0891.

“HMKEETEMVTIPDVTGKPLTEAANLLREAKLDYLAESTGTSVTKQMPLPGAEVMVNTTVLLYTG”: the “soluble fraction (log2)” value worked out at 0.157.

Take “HMKEEVMVPNVVGKELSAALLEMQVKELYPKLQLKYSNFVDDKGTVLEQSPPAGSIVKAGRRINLVVSRGA”: the “soluble fraction (log2)” value amounted to 0.106.

These data come from the domain aggregation screens of Martell et al. (2025).
